According to patent publication US20230039487A1 (SHENZHEN FEIPENG BIOLOGICAL THERAPY, published 2023):

T1: hu (human) BCMA ECD His (ACRO, BCA-H522y) (human, UniProt Q02223 1-54)
T1 construct: extracellular domain; Bought reagent (ACRO BCA-H522y); also called hu BCMA ECD His; not shown: His tag
T1 sequence (looked up): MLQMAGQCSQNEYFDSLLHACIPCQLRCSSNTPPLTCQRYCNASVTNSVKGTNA

T2: hBCMA ECD hFc (ACRO, BC7-H5254) (human, UniProt Q02223 1-54)
T2 construct: extracellular domain; Bought reagent (ACRO BC7-H5254); also called R0341; not shown: human Fc
T2 sequence (looked up): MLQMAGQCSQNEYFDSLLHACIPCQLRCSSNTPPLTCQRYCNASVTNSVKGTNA

T3: human BCMA (full-length, on cells) (human, UniProt Q02223 1-184)
T3 construct: whole, on cells; also called K562-BCMA; CHO-BCMA
T3 sequence (looked up): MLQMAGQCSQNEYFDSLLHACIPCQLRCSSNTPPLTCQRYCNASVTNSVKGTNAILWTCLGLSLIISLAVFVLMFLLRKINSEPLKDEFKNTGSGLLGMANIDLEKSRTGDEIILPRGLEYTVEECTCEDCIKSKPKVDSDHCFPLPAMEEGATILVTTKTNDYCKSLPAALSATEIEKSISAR

B1: 5E2 (antibody, V domains shown)
VH: EVQLQQSGPELIKPGASVKMSCKASGYTFTSYVVHWVKQKPGQGLEWIGYIIPYNDDTKYNEKFKGKATLTSDKSSSTAYMELSSLTSEDSAVYYCARWDYDDGYFDYWGQGTTLTVSS
VL: DVVMTQTPLSLPVTLGDQASISCRSSQSLLHSNGNTYLHWYLQKPGQSPKLLIYKVSNRFSGVPDRFSGSGSGTDFTLKISRVEAEDLGVYFCSQITHIPFTFGSGTKLEIKR
notes: Mouse hybridoma antibody; It was amplified with primers for mouse IgG1 and detected with anti-mouse IgG in Embodiment 2; In Embodiment 5 it is called mVH-mVL ('a murine antibody before humanization'); also called BCMA antibody 5E2; mVH-mVL
B2: hu VH1-VL3 (antibody, V domains shown)
VH: QVQLVQSGAEVKKPGASVKMSCKASGYTFTSYVVHWVRQAPGQGLEWIGYIIPYNDDTKYNEKFKGKATLTSDKSSSTAYMELSSLRSEDTAVYYCARWDYDDGYFDYWGQGTTVTVSS
VL: DIVMTQTPLSLSVTPGQPASISCKSSQSLLHSNGNTYLHWYLQKPGQPPQLLIYKVSNRFSGVPDRFSGSGSGTDFTLKISRVEAEDVGVYYCSQITHIPFTFGQGTKLEIKR
notes: Humanized 5E2; also called humanized BCMA antibody hu VH1-VL3
B3: hu VH1-VL1 (antibody, V domains shown)
VH: QVQLVQSGAEVKKPGASVKMSCKASGYTFTSYVVHWVRQAPGQGLEWIGYIIPYNDDTKYNEKFKGKATLTSDKSSSTAYMELSSLRSEDTAVYYCARWDYDDGYFDYWGQGTTVTVSS
VL: DVVMTQSPLSLPVTLGQPASISCRSSQSLLHSNGNTYLHWYLQKPGQSPQLLIYKVSNRFSGVPDRFSGSGSGTDFTLKISRVEAEDVGVYFCSQITHIPFTFGQGTKLEIK
notes: Humanized 5E2; also called humanized BCMA antibody hu VH1-VL1
B4: hu VH2-VL1 (antibody, V domains shown)
VH: QVQLVQSGAEVKKPGASVKMSCKASGYTFTSYVVHWVRQAPGQGLEWIGYIIPYNDDTKYNEKFKGRVTLTSDKSTSTAYMELSSLRSEDTAVYYCARWDYDDGYFDYWGQGTTVTVSS
VL: DVVMTQSPLSLPVTLGQPASISCRSSQSLLHSNGNTYLHWYLQKPGQSPQLLIYKVSNRFSGVPDRFSGSGSGTDFTLKISRVEAEDVGVYFCSQITHIPFTFGQGTKLEIK
notes: Humanized 5E2; also called humanized BCMA antibody hu VH2-VL1
B5: hu VH1-VL2 (antibody, V domains shown)
VH: QVQLVQSGAEVKKPGASVKMSCKASGYTFTSYVVHWVRQAPGQGLEWIGYIIPYNDDTKYNEKFKGKATLTSDKSSSTAYMELSSLRSEDTAVYYCARWDYDDGYFDYWGQGTTVTVSS
VL: DVVMTQTPLSLSVTPGQPASISCKSSQSLLHSNGNTYLHWYLQKPGQSPQLLIYKVSNRFSGVPDRFSGSGSGTDFTLKISRVEAEDVGVYFCSQITHIPFTFGQGTKLEIK
notes: Humanized 5E2; also called humanized BCMA antibody hu VH1-VL2
B6: R0317 (C11D5.3 BCMA mouse monoclonal antibody) (antibody, V domains shown)
VH: QIQLVQSGPELKKPGETVKISCKASGYTFTDYSINWVKRAPGKGLKWMGWINTETREPAYAYDFRGRFAFSLETSASTAYLQINNLKYEDTATYFCALDYSYAMDYWGQGTSVTVSS
VL: DIVLTQSPASLAMSLGKRATISCRASESVSVIGAHLIHWYQQKPGQPPKLLIYLASNLETGVPARFSGSGSGTDFTLTIDPVEEDDVAIYSCLQSRIFPRTFGGGTKLEIK

Key:
[1] = molecular target: T1, hu (human) BCMA ECD His (ACRO, …); assay: ELISA; hu BCMA ECD His coated at 2 µg/mL, antibody in 3-fold dilutions
[2] = molecular target: T2, hBCMA ECD hFc (ACRO, BC7-H5254); assay: ELISA; hBCMA ECD hFc coated at 2 µg/ml, antibody in 3-fold dilutions
Description: R0317 is a C11D5.3BCMA mouse monoclonal antibody, and its specific sequence and information may be found publicly.

[3] = molecular target: T3, human BCMA (full-length, on cells); assay: flow cytometry on K562, H929, RPMI8226 and K562-BCMA cells; PE goat anti-mouse IgG1
Description: The specificity of BCMA antibody of the present disclosure is detected by FACs. A human BCMA full-length gene is synthesized in vitro, and a restriction enzyme cutting site is introduced, the synthesized human BCMA full-length gene is inserted into a lentiviral packaging plasmid vector (PCDHF) by double enzyme digestion, and lentiviral packaging (the specific operation steps are generally 4 plasmid lentiviral packaging steps, please refer to a section about lentiviral packaging on an official website of Jikai Gene in detail) is performed. The prepared lentivirus is infected with a K562 cell (ATCC, article number: CCL-243) to construct a K562-BCMA cell, and the cells are single-clone-picked and identified, to obtain a stable cell line K562-BCMA stably expressing BCMA. The 5E2 and 5F4 antibodies are respectively incubated with K562, H929, RPMI8226 and K562-BCMA cells for 30 min at 4° C., after that, it is washed twice with PBS, then a secondary antibody PE goat anti-mouse IgG1 (Biolegend, B288920) is added, and incubated at 4° C. for 30 min, after that, it is washed twice with PBS. Then, the detection is performed by using a Beckman Coulter flow cytometry. Detection results are shown in FIG. 5 below, and 5E2 and 5F4 may specifically bind to the cells of which the BCMA expression is positive.

[4] = molecular target: T1, hu (human) BCMA ECD His (ACRO, …); assay: ELISA; hu BCMA ECD His coated at 2 µg/mL, antibody from 20 µg/mL in 3-fold dilutions
Description: Herein, mVH-mVL is a murine BCMA antibody, and is a murine antibody before humanization.

[5] = molecular target: T3, human BCMA (full-length, on cells); assay: flow cytometry on K562-BCMA and CHO-BCMA cells; antibody from 30 µg/ml in 3-fold dilutions, APC anti-human IgG Fc
Description: A K562 cell (ATCC® CCL-243™) is a human chronic myeloid leukemia cell, and a CHO cell (ATCC® CRL-12023™) is a Chinese hamster ovary cell. The K562 cells and the CHO cells are respectively infected with lentiviruses containing a full-length sequence of human BCMA, and after being infected, a monoclone is picked, to obtain a K562-BCMA cell line and a CHO-BCMA cell line stably expressing BCMA, and the affinity (EC50) of the four humanized antibodies to K562-BCMA and CHO-BCMA is detected respectively. A specific detection method is as follows: cells are harvested, washed once with PBS, and resuspended with PBS according to 2E+5 cells/200 μL. The four BCMA humanized antibodies are diluted in a 3-fold gradient with 1% BSA, the concentration of the former gradient antibody is 3 times greater than that of the latter gradient antibody, (the initial concentration of the antibody is 30 μg/ml, and there is a total of 11 gradients), and then it is respectively incubated with the cells at 4° C. for 30 min. After that, it is incubated with APC anti-human IgG Fc Antibody (Biolegend, 409306) for 30 min at 4° C., washed twice with 1x PBS, and detected by a Beckman Coulter (model number: CytoFLEX) flow cytometry. […] The affinity EC₅₀ of hu VH1VL2 to K562-BCMA is slightly weaker. However, the affinity EC₅₀ of hu VH1-VL2 and CHO-BCMA is at the same level as the other three humanized antibodies, and the expression abundance of the four humanized antibodies and the murine BCMA antibody binding to CHO-BCMA is in the order of m VH-m VL, hu VH1-VL1, hu VH2-VL1, hu VH1-VL2, and hu VH1-VL3 from high to low.

[6] = molecular target: T3, human BCMA (full-length, on cells); assay: flow cytometry on RPMI8226 and H929 myeloma cells; antibody from 10 µg/ml in 3-fold dilutions, PE anti-mouse IgG
Protocol: A RPMI8226 cell (ATCC® CRM-CCL-155™) is a human multiple myeloma peripheral blood B lymphocyte, and a H929 cell (ATCC® CRL-9068™) is a human multiple myeloma bone marrow B lymphocyte. A specific detection method is as follows: cells are harvested, washed with PBS once, and then resuspend with PBS according to 2E+5 cells/200 μl. The three antibodies are diluted in a gradient (the initial concentration of the antibody is 10 μg/ml, it is diluted with 1% BSA in 3-fold, and there is a total of 9 gradients), and then incubated with the cells for 30 min at 4° C. After that, it is incubated with a PE-labeled anti-mouse IgG secondary antibody (Biolegend, B288920), washed twice, and detected by a Beckman Coulter (model number: CytoFLEX) flow cytometry.

| Binder | binding result [1] | binding result [2] | binding result [3] | binding result [4] | binding result [5] | binding result [6] |
| --- | --- | --- | --- | --- | --- | --- |
| B1 | binds | binds | binds |  |  |  |
| B2 |  |  |  | binds | binds |  |
| B3 |  |  |  | binds | binds |  |
| B4 |  |  |  | binds | binds |  |
| B5 |  |  |  | binds | binds |  |
| B6 |  | binds |  |  |  | binds |
